Measured values: PMC12422955 (Nature, 2025)

B3: recombinant homomeric GluA4 receptor (C-terminal GFP and Strep tag) (receptor, UniProt P19493 21-902, looked up)
chain: GAFPSSVQIGGLFIRNTDQEYTAFRLAIFLHNTSPNASEAPFNLVPHVDNIETANSFAVTNAFCSQYSRGVFAIFGLYDKRSVHTLTSFCSALHISLITPSFPTEGESQFVLQLRPSLRGALLSLLDHYEWNCFVFLYDTDRGYSILQAIMEKAGQNGWHVSAICVENFNDVSYRQLLEELDRRQEKKFVIDCEIERLQNILEQIVSVGKHVKGYHYIIANLGFKDISLERFIHGGANVTGFQLVDFNTPMVTKLMDRWKKLDQREYPGSETPPKYTSALTYDGVLVMAETFRSLRRQKIDISRRGNAGDCLANPAAPWGQGIDMERTLKQVRIQGLTGNVQFDHYGRRVNYTMDVFELKSTGPRKVGYWNDMDKLVLIQDMPTLGNDTAAIENRTVVVTTIMESPYVMYKKNHEMFEGNDKYEGYCVDLASEIAKHIGIKYKIAIVPDGKYGARDADTKIWNGMVGELVYGKAEIAIAPLTITLVREEVIDFSKPFMSLGISIMIKKPQKSKPGVFSFLDPLAYEIWMCIVFAYIGVSVVLFLVSRFSPYEWHTEEPEDGKEGPSDQPPNEFGIFNSLWFSLGAFMQQGCDISPRSLSGRIVGGVWWFFTLIIISSYTANLAAFLTVERMVSPIESAEDLAKQTEIAYGTLDSGSTKEFFRRSKIAVYEKMWTYMRSAEPSVFTRTTAEGVARVRKSKGKFAFLLESTMNEYTEQRKPCDTMKVGGNLDSKGYGVATPKGSSLGNAVNLAVLKLNEQGLLDKLKNKWWYDKGECGSGGGDSKDKTSALSLSNVAGVFYILVGGLGLAMLVALIEFCYKSRAEAKRMKLTFSEATRNKARLSITGSVGENGRVLTPDCPKAVHTGTAIRQSSGLAVIASDLP
notes: GluA4; also called recombinant GluA4; rGluA4-GFP; source: tsA201 cells (BacMam), digitonin-solubilised, purified (Strep-Tactin, SEC); not shown: GFP, C-terminal, kept

Key:
Settings in all cases: both partners purified
[1] = target: dNOE1–mScarlet (dimeric NOE1 construct, residues 205-481 with five GCN4 residues) (rat, UniProt Q62609 205-481); assay: SEC; FSEC of the dNOE1 construct alone, in the absence of a reducing agent
[2] = target: B3; assay: BLI; Octet RED384, 30 °C; Fc–dNOE1–mScarlet (20 μg/ml) captured on AMC biosensor; GluA4–GFP 0.78–50 nM; 20 mM Tris pH 8.0, 150 mM NaCl, 0.075% digitonin with 3 mM glutamate or 2 μM ZK and 10 μM (R,R)-2b; 1:1 binding model
[3] = target: T1, recombinant full-length NOE1–mScarlet-His (rat, UniProt Q62609 25-485); assay: SEC; FSEC, Superose 6 calibrated with mass markers; 5 nM full-length NOE1–mScarlet with 5–150 nM GluA4, or 1 nM with 1–100 nM CP-AMPARs; mScarlet fluorescence
T1 construct: signal peptide in the construct; full-length rat NOE1, residues 1-485; Tag joined by an SG linker or an SG–HRV 3C site–AAAA motif; source: tsA201 cells (BacMam), secreted, purified (Ni-NTA, SEC); not shown: mScarlet, C-terminal, kept
T1 sequence (Q62609 25-485): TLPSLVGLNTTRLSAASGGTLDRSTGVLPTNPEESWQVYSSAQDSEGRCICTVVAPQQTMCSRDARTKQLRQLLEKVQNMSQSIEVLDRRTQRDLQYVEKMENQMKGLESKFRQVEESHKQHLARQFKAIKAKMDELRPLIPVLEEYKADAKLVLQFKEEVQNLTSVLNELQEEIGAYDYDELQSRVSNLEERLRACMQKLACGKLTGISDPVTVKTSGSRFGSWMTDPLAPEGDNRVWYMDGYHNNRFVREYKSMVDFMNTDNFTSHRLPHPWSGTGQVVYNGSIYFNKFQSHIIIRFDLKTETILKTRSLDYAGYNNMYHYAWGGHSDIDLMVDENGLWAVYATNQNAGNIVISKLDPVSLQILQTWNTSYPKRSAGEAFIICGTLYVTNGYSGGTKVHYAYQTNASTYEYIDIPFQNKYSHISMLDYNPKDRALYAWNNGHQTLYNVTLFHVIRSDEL

B1: dNOE1–mScarlet (dimeric NOE1 construct, residues 205-481 with five GCN4 residues) (domain or fragment)
chain: GLKQEIDELQSRVSNLEERLRACMQKLACGKLTGISDPVTVKTSGSRFGSWMTDPLAPEGDNRVWYMDGYHNNRFVREYKSMVDFMNTDNFTSHRLPHPWSGTGQVVYNGSIYFNKFQSHIIIRFDLKTETILKTRSLDYAGYNNMYHYAWGGHSDIDLMVDENGLWAVYATNQNAGNIVISKLDPVSLQILQTWNTSYPKRSAGEAFIICGTLYVTNGYSGGTKVHYAYQTNASTYEYIDIPFQNKYSHISMLDYNPKDRALYAWNNGHQTLYNVTLFHVIR
modifications: Disulfide-linked dimer (non-reducing), glycosylated. The cystatin SN signal peptide is assumed cleaved after ...AVALA by convention, leaving G plus GCN4 LKQEI. C-terminal GSG-3C-AAAA-mScarlet-His …
- stoichiometry N [1]: 2

B2: Fc–dNOE1–mScarlet (Fc fusion)
chain: LKQEIDELQSRVSNLEERLRACMQKLACGKLTGISDPVTVKTSGSRFGSWMTDPLAPEGDNRVWYMDGYHNNRFVREYKSMVDFMNTDNFTSHRLPHPWSGTGQVVYNGSIYFNKFQSHIIIRFDLKTETILKTRSLDYAGYNNMYHYAWGGHSDIDLMVDENGLWAVYATNQNAGNIVISKLDPVSLQILQTWNTSYPKRSAGEAFIICGTLYVTNGYSGGTKVHYAYQTNASTYEYIDIPFQNKYSHISMLDYNPKDRALYAWNNGHQTLYNVTLFHVIR
modifications: Disulfide-linked, glycosylated dimer. Mouse Fc carrier (before the coiled coil) and C-terminal mScarlet-His left out. The position of the five GCN4 residues relative to Fc is not given; they are …
- Kd [2]: ~9.4 nM

Binder: B3
- stoichiometry N [3]: 2 receptors per NOE1 tetramer
